From publication PMC4205158 (Structure (London, England : 1993), 2008)
“Also recorded” adds a separate entry of the source.

Experiments:
IRAK1-ki = experiment: GST-pulldown of kinase-inactive mutant IRAK1-ki; conditions: qualitative, HEK293T lysates
IRAK1b = experiment: GST-pulldown of IRAK1b; conditions: qualitative; HEK293T lysates; kinase-inactive IRAK1b

## Purified Pellino2 (from UniProt Q9HAT8 1-420) (natural protein)
Rad9(pT192) peptide
  Kd: > 100 µM

B1: Pellino2: GST-fusion protein of full-length Pellino2 (human cDNA) (protein)
chain: MFSPGQEEHCAPNKEPVKYGELVVLGYNGALPNGDRGRRKSRFALYKRPKANGVKPSTVHVISTPQASKAISCKGQHSISYTLSRNQTVVVEYTHDKDTDMFQVGRSTESPIDFVVTDTISGSQNTDEAQITQSTISRFACRIVCDRNEPYTARIFAAGFDSSKNIFLGEKAAKWKNPDGHMDGLTTNGVLVMHPRGGFTEESQPGVWREISVCGDVYTLRETRSAQQRGKLVESETNVLQDGSLIDLCGATLLWRTADGLFHTPTQKHIEALRQEINAARPQCPVGLNTLAFPSINRKEVVEEKQPWAYLSCGHVHGYHNWGHRSDTEANERECPMCRTVGPYVPLWLGCEAGFYVDAGPPTHAFTPCGHVCSEKSAKYWSQIPLPHGTHAFHAACPFCATQLVGEQNCIKLIFQGPID
modifications: left off: His6, N-terminal, cleaved
IRAK1-ki
  interaction with IRAK1-ki in GST-pulldown: are not precipitated; also recorded: do not interact
IRAK1b
  interaction with IRAK1b in GST-pulldown: are not precipitated; also recorded: do not interact
